The results in this text go back to paper PMC6739602, “Intestinal Gel-Forming Mucins Polymerize by Disulfide-Mediated Dimerization of D3 Domains” (Journal of Molecular Biology, 2019).

Data set [1] concerns the molecule itself. As to the kind of experiment: SEC-MALS; Superose 6 10/300 column, 0.5 ml/min, 10 mM Tris (pH 7.4), 20 mM NaCl, 0.02% sodium azide. (In general: In gel filtration, larger molecules generally elute earlier.)
Data set [2] deals with the molecule itself. As to the kind of experiment: SEC-MALS; Superdex 200 Increase 10/300 column, 0.5 ml/min, 25 mM Hepes (pH 7.4), 250 mM NaCl, 0.02% sodium azide.

B1: D1D2D3CysD1, mucin 2 recombinant protein spanning residues 21 to 1397 (domain or fragment, human, UniProt Q02817 21-1397, looked up)
chain: SELQTEGRTRNHGHNVCSTWGNFHYKTFDGDVFRFPGLCDYNFASDCRGSYKEFAVHLKRGPGQAEAPAGVESILLTIKDDTIYLTRHLAVLNGAVVSTPHYSPGLLIEKSDAYTKVYSRAGLTLMWNREDALMLELDTKFRNHTCGLCGDYNGLQSYSEFLSDGVLFSPLEFGNMQKINQPDVVCEDPEEEVAPASCSEHRAECERLLTAEAFADCQDLVPLEPYLRACQQDRCRCPGGDTCVCSTVAEFSRQCSHAGGRPGNWRTATLCPKTCPGNLVYLESGSPCMDTCSHLEVSSLCEEHRMDGCFCPEGTVYDDIGDSGCVPVSQCHCRLHGHLYTPGQEITNDCEQCVCNAGRWVCKDLPCPGTCALEGGSHITTFDGKTYTFHGDCYYVLAKGDHNDSYALLGELAPCGSTDKQTCLKTVVLLADKKKNVVVFKSDGSVLLNELQVNLPHVTASFSVFRPSSYHIMVSMAIGVRLQVQLAPVMQLFVTLDQASQGQVQGLCGNFNGLEGDDFKTASGLVEATGAGFANTWKAQSSCHDKLDWLDDPCSLNIESANYAEHWCSLLKKTETPFGRCHSAVDPAEYYKRCKYDTCNCQNNEDCLCAALSSYARACTAKGVMLWGWREHVCNKDVGSCPNSQVFLYNLTTCQQTCRSLSEADSHCLEGFAPVDGCGCPDHTFLDEKGRCVPLAKCSCYHRGLYLEAGDVVVRQEERCVCRDGRLHCRQIRLIGQSCTAPKIHMDCSNLTALATSKPRALSCQTLAAGYYHTECVSGCVCPDGLMDDGRGGCVVEKECPCVHNNDLYSSGAKIKVDCNTCTCKRGRWVCTQAVCHGTCSIYGSGHYITFDGKYYDFDGHCSYVAVQDYCGQNSSLGSFSIITENVPCGTTGVTCSKAIKIFMGRTELKLEDKHRVVIQRDEGHHVAYTTREVGQYLVVESSTGIIVIWDKRTTVFIKLAPSYKGTVCGLCGNFDHRSNNDFTTRDHMVVSSELDFGNSWKEAPTCPDVSTNPEPCSLNPHRRSWAEKQCSILKSSVFSICHSKVDPKPFYEACVHDSCSCDTGGDCECFCSAVASYAQECTKEGACVFWRTPDLCPIFCDYYNPPHECEWHYEPCGNRSFETCRTINGIHSNISVSYLEGCYPRCPKDRPIYEEDLKKCVTADKCGCYVEDTHYPPGASVPTEETCKSCVCTNSSQVVCRPEEGKILNQTQDGAFCYWEICGPNGTVEKHFNICSITTRPSTLTTFTTITLPTTPTTFTTTTTTTTPTSSTVLSTTPKLCCLWSDWINEDHPSSGSDDGDRETFDGVCGAPEDIECRSVKDPHLSLEQLGQKVQCDVSVGFICKNEDQFGNGPFGLCYDYKIRVNCCWPMDKCIT
notes: mucin 2 (MUC2), human, Uniprot Q02817, residues 21 to 1397 (includes the CysD1 domain following a short threonine-rich segment); Probably made with the same QSOX1 signal peptide as MUC2D3, which would leave Ala-Pro at the N-terminus; also called the largest fragment; source: HEK293F, produced and purified essentially as for MUC2D3 (no kifunensine; preparative gel filtration in 10 mM Hepes pH 7.5, …)
What is called stoichiometry N is a count of units in the complex or per binding partner. As for B1, the “stoichiometry N” value in data set [1] is 2.

B2: D1D2D3, mucin 2 recombinant protein spanning residues 21 to 1259 (domain or fragment, human, UniProt Q02817 21-1259, looked up)
chain: SELQTEGRTRNHGHNVCSTWGNFHYKTFDGDVFRFPGLCDYNFASDCRGSYKEFAVHLKRGPGQAEAPAGVESILLTIKDDTIYLTRHLAVLNGAVVSTPHYSPGLLIEKSDAYTKVYSRAGLTLMWNREDALMLELDTKFRNHTCGLCGDYNGLQSYSEFLSDGVLFSPLEFGNMQKINQPDVVCEDPEEEVAPASCSEHRAECERLLTAEAFADCQDLVPLEPYLRACQQDRCRCPGGDTCVCSTVAEFSRQCSHAGGRPGNWRTATLCPKTCPGNLVYLESGSPCMDTCSHLEVSSLCEEHRMDGCFCPEGTVYDDIGDSGCVPVSQCHCRLHGHLYTPGQEITNDCEQCVCNAGRWVCKDLPCPGTCALEGGSHITTFDGKTYTFHGDCYYVLAKGDHNDSYALLGELAPCGSTDKQTCLKTVVLLADKKKNVVVFKSDGSVLLNELQVNLPHVTASFSVFRPSSYHIMVSMAIGVRLQVQLAPVMQLFVTLDQASQGQVQGLCGNFNGLEGDDFKTASGLVEATGAGFANTWKAQSSCHDKLDWLDDPCSLNIESANYAEHWCSLLKKTETPFGRCHSAVDPAEYYKRCKYDTCNCQNNEDCLCAALSSYARACTAKGVMLWGWREHVCNKDVGSCPNSQVFLYNLTTCQQTCRSLSEADSHCLEGFAPVDGCGCPDHTFLDEKGRCVPLAKCSCYHRGLYLEAGDVVVRQEERCVCRDGRLHCRQIRLIGQSCTAPKIHMDCSNLTALATSKPRALSCQTLAAGYYHTECVSGCVCPDGLMDDGRGGCVVEKECPCVHNNDLYSSGAKIKVDCNTCTCKRGRWVCTQAVCHGTCSIYGSGHYITFDGKYYDFDGHCSYVAVQDYCGQNSSLGSFSIITENVPCGTTGVTCSKAIKIFMGRTELKLEDKHRVVIQRDEGHHVAYTTREVGQYLVVESSTGIIVIWDKRTTVFIKLAPSYKGTVCGLCGNFDHRSNNDFTTRDHMVVSSELDFGNSWKEAPTCPDVSTNPEPCSLNPHRRSWAEKQCSILKSSVFSICHSKVDPKPFYEACVHDSCSCDTGGDCECFCSAVASYAQECTKEGACVFWRTPDLCPIFCDYYNPPHECEWHYEPCGNRSFETCRTINGIHSNISVSYLEGCYPRCPKDRPIYEEDLKKCVTADKCGCYVEDTHYPPGASVPTEETCKSCVCTNSSQVVCRPEEGKILNQTQDGAFCYWEICGPNGTVEKHFNICSIT
notes: mucin 2 (MUC2), human, Uniprot Q02817, residues 21 to 1259; Probably made with the same QSOX1 signal peptide as MUC2D3, which would leave Ala-Pro at the N-terminus; also called MUC2 D1D2D3; source: HEK293F, produced and purified essentially as for MUC2D3 (no kifunensine; preparative gel filtration in 10 mM Hepes pH 7.5, 20 mM NaCl); not shown: His6, C-terminal, kept
As for B2, the “stoichiometry N” value in data set [1] worked out at 2.

B3: MUC2D3, mucin 2 recombinant protein spanning residues 858 to 1259 (domain or fragment)
chain: APGTCSIYGSGHYITFDGKYYDFDGHCSYVAVQDYCGQNSSLGSFSIITENVPCGTTGVTCSKAIKIFMGRTELKLEDKHRVVIQRDEGHHVAYTTREVGQYLVVESSTGIIVIWDKRTTVFIKLAPSYKGTVCGLCGNFDHRSNNDFTTRDHMVVSSELDFGNSWKEAPTCPDVSTNPEPCSLNPHRRSWAEKQCSILKSSVFSICHSKVDPKPFYEACVHDSCSCDTGGDCECFCSAVASYAQECTKEGACVFWRTPDLCPIFCDYYNPPHECEWHYEPCGNRSFETCRTINGIHSNISVSYLEGCYPRCPKDRPIYEEDLKKCVTADKCGCYVEDTHYPPGASVPTEETCKSCVCTNSSQVVCRPEEGKILNQTQDGAFCYWEICGPNGTVEKHFNICSIT
modifications: N-linked glycans (six potential N-linked glycosylation sites); for the crystals endoH-treated to leave only a monosaccharide at glycosylated asparagines; intersubunit disulfides C1088-C1088 and C1130-C1130
notes: cleavage is predicted to occur between the two adjacent alanines; mucin 2 (MUC2), human, Uniprot Q02817, residues 858 to 1259 (VWD3, C8-3, TIL-3 and E-3 domains); Expressed in pcDNA3.1 downstream of the QSOX1 signal peptide; kifunensine/EndoH-treated protein gave the crystals of the solved structure; Disulfide-linked homodimer; also called mucin 2 multimerization module; MUC2 region spanning the …
For the protein B3, in data set [2], the “stoichiometry N” value was found to be 2.
